{"source": "patent US20260078398A1", "about": "“PLANTS GENETICALLY ENGINEERED FOR INCREASED WATER USE EFFICIENCY AND CARBON INTAKE AND METHODS FOR MAKING AND USING THEM” (The Regents of the University of California, priority 2022, published 2026)", "key": {"[1]": {"biological_target": "T1, His-HT1 (recombinant Arabidopsis HT1 protein kinase, wild type, with His tag)", "T1 chain": "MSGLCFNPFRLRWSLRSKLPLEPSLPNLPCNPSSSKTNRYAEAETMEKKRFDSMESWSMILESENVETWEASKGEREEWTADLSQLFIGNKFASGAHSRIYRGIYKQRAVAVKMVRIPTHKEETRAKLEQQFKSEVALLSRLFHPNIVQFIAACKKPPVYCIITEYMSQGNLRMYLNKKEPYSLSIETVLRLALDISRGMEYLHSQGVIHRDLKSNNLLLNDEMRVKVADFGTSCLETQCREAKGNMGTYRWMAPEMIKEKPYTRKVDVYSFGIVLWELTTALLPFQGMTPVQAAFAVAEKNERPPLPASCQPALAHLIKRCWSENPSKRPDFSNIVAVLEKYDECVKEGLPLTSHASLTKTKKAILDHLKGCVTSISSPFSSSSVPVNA"}, "HT1-G89R": {"biological_target": "T2, HT1-G89R (Arabidopsis, UniProt Q2MHE4 1-390)", "T2 construct": "Recombinant HT1 isoform; No tag is stated for the variant; the wild type in the same pull-down was His-HT1; also called ht1-G89R isoform", "T2 sequence": "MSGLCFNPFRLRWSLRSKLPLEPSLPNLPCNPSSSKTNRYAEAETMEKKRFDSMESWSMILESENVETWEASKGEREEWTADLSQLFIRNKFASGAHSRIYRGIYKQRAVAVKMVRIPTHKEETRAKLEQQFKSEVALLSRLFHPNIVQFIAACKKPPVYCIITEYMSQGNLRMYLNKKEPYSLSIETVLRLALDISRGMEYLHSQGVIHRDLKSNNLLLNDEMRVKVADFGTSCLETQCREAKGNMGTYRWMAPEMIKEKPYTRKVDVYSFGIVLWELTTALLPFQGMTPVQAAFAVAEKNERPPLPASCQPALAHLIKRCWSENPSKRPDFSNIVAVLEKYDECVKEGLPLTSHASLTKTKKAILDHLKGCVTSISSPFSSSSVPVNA", "test": "in vitro pull-down with or without NaHCO3 (FIG. 4E, n=3)", "experimental": "FIG. 4E illustrates gel protein separation images showing data where in vitro pull-down assays were performed using recombinant HT1 (wild type, HT1-G89R and HT1-R173Q) proteins;\nFIG. 4. Bicarbonate inactivates HT1 kinase by stabilizing HT1 interaction with MPK4/12. [0265] (A) Recombinant CBC1, HT1 and MPK4 proteins are incubated with or without 20 mM NaHCO₃ for 30 min, and in vitro phosphorylation assays were performed. [0266] (B) CBC1 and HT1 proteins were incubated with or without 20 mM NaHCO₃ or 20 mM NaCl (“−” controls) in the presence or absence of MPK12 protein. [0267] (C) His-HT1 and GST-MPK4 or GST control proteins were used for in vitro pull-down assays with or without 20 mM NaHCO₃. NaHCO₃ or 20 mM NaCl (“−” controls) were supplemented in all buffers throughout the pull-down assay procedures including the washing step. [0268] […] [0269] (E) In vitro pull-down assays were performed using recombinant HT1 (wild type, HT1-G89R and HT1-R173Q) proteins. [0270] (F) In vitro pull-down assays were performed using HT1-R102K isoform. [0271] (G) In vitro pull-down assays were performed using HT1-A109V isoform. [0272] […] [0273] (I) Stomatal conductances were analyzed in leaves of intact Arabidopsis plants [Col-0 (WT), mpk 12, pGC1:MPK12-GFP/mpk12 and pGC1:MPK12 (K70R)-GFP/mpk12]. CO₂ concentration changes were applied as indicated on top (p.p.m.). n=6 experiments, error bars show ±SEM. [0274] […]"}, "HT1-R102K": {"biological_target": "T3, HT1-R102K (Arabidopsis, UniProt Q2MHE4 1-390)", "T3 construct": "Recombinant HT1 isoform; No tag is stated for the variant", "T3 sequence": "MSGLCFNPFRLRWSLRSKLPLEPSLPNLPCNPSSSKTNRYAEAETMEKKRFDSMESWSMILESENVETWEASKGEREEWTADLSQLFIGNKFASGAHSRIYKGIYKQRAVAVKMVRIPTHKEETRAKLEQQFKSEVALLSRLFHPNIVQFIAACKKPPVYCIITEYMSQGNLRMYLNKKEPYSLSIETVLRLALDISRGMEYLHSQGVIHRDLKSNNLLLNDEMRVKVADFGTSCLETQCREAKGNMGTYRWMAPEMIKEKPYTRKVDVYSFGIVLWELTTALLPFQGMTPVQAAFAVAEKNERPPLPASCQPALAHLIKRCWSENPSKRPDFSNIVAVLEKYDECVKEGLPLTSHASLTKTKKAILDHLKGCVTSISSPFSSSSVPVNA", "test": "in vitro pull-down with or without NaHCO3 (FIG. 4F, n=3)"}, "HT1-A109V": {"biological_target": "T4, HT1-A109V (Arabidopsis, UniProt Q2MHE4 1-390)", "T4 construct": "Recombinant HT1 isoform; No tag is stated for the variant; also called ht1-A109V isoform", "T4 sequence": "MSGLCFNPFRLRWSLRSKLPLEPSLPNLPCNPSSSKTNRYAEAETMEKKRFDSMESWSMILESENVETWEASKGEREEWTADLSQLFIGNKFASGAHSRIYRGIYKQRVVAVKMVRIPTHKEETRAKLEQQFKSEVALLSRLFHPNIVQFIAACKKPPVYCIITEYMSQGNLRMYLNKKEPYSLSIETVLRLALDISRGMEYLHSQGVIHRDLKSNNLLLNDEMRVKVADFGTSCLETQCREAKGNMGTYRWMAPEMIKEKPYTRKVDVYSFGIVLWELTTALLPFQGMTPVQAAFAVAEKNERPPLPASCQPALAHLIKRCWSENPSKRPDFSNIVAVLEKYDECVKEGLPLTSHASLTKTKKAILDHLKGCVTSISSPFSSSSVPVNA", "test": "in vitro pull-down with or without NaHCO3 (FIG. 4G, n=3)"}}, "data": [{"binder": "GST-MPK4 (recombinant Arabidopsis MAP kinase MPK4 with GST tag) (enzyme, The tag is placed at the N-terminus only because of the printed name GST-MPK4; The phosphorylation assays say only 'MPK4' and name no tag; also called AtMPK4; AT4G01370; not shown: GST tag) MSAESCFGSSGDQSSSKGVATHGGSYVQYNVYGNLFEVSRKYVPPLRPIGRGAYGIVCAATNSETGEEVAIKKIGNAFDNIIDAKRTLREIKLLKHMDHENVIAVKDIIKPPQRENFNDVYIVYELMDTDLHQIIRSNQPLTDDHCRFFLYQLLRGLKYVHSANVLHRDLKPSNLLLNANCDLKLGDFGLARTKSETDFMTEYVVTRWYRAPELLLNCSEYTAAIDIWSVGCILGETMTREPLFPGKDYVHQLRLITELIGSPDDSSLGFLRSDNARRYVRQLPQYPRQNFAARFPNMSAGAVDLLEKMLVFDPSRRITVDEALCHPYLAPLHDINEEPVCVRPFNFDFEQPTLTEENIKELIYRETVKFNPQDSV", "values": [{"measurement": "CBC1 and histone phosphorylation in vitro (HT1 + CBC1 + MPK4, 20 mM NaHCO3; FIG. 2A, n>6)", "setting": "[1]", "result": "when MPK4 or MPK12 were added to the reaction, we found that the addition of NaHCO3, but not NaCl, inhibited both CBC1 phosphorylation and histone phosphorylation in vitro"}, {"measurement": "binding result", "setting": "HT1-G89R", "result": "no binding"}, {"measurement": "binding result", "setting": "HT1-R102K", "result": "no binding"}, {"measurement": "binding result", "setting": "HT1-A109V", "result": "no binding"}]}]}
